Patent publication US20240383994A1 (CHIA TAI TIANQING PHARMACEUTICAL GROUP, published 2024)
Changes are numbered by the printed parent chain.

T1: CynoCD40-His protein (Acro, Cat. No.: CD0-C52H6) (cynomolgus monkey, UniProt P25942 21-193 (human entry))
T1 construct: Bought protein; also called cynomolgus monkey CD40 antigen; not shown: His tag
T1 chain: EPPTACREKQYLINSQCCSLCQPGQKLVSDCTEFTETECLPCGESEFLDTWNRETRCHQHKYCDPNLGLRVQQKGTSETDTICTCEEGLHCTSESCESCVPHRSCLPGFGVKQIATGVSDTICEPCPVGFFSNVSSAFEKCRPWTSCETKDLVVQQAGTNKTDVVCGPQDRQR

B1: Chi-A03 (antibody, human IgG4 S228P, kappa, V domains shown)
VH: DVQLQESGPDRVKPSQSLSLTCTVTGYSITSDYSWHWIRQFPGNKLEWMGYIYSSGHTYYNPSLKSRISFTRDTSKNQFFLQLNSVTTEDTATYYCAIYYYGRSYFDNWGRGTTLTVSS
VL: QIVLTQSPAIMSASPGEKVTLTCSASSSVNYMHWYQQKSGTSPKRWIYDTSKLASGVPARFSGSGSGTSYSLTISSMEAEDAATYYCQQWSSNPLTFGAGTKLELKR
notes: also called chimeric A03
B2: Chi-A01 (antibody, human IgG4 S228P, kappa, V domains shown)
VH: QVQLKESGPGLVAPSQSLSITCTVSGFSLPTSGVHWVRQPPGKGLEWLGVIWAGGDTNYNSALMSRLSISKDNSKSQVFLKMNSLQKDDTAIYYCLGHGHFDVWGAGTTVTVSS
VL: DVVMTQTPLSLPVSLGDQASISCRSSQSLVHSSGNTYLQWYLQKPGQSPGLLIYKVSNRFSGVPDRFSGSGSGTDFTLKISRVEAEDLGVYFCSQTTHVPWTFGGGTKLEIKR
notes: also called chimeric A01
B3: Chi-A02 (antibody, human IgG4 S228P, kappa, V domains shown)
VH: B2 VH with P30T, T31S, N58S, K87T, I92M, F101L
VL: B2 VL with Q39H
notes: also called chimeric A02
B4: Iscalimab (CFZ533) (antibody, human IgG1, kappa, N297A, V domains shown)
VH: QVQLVESGGGVVQPGRSLRLSCAASGFTFSSYGMHWVRQAPGKGLEWVAVISYEESNRYHADSVKGRFTISRDNSKITLYLQMNSLRTEDTAVYYCARDGGIAAPGPDYWGQGTLVTVSS
VL: DIVMTQSPLSLTVTPGEPASISCRSSQSLLYSNGYNYLDWYLQKPGQSPQVLISLGSNRASGVPDRFSGSGSGTDFTLKISRVEAEDVGVYYCMQARQTPFTFGPGTKVDIRR
notes: also called BM; benchmark
B5: hzA01-3.3 (antibody, human IgG4 S228P, kappa, V domains shown)
VH: QVQLKESGPGLVKPSETLSLTCTVSGFSLPTSGVHWIRQPPGKGLEWIGVIWAGGDTNYNSALKSRVTISKDNSKSQVFLKLSSVTAADTAVYYCLGHGHFDVWGQGTLVTVSS
VL: B2 VL with T7S, S14T, D17Q, Q18P, K44R, L88V, F92Y, G105Q
notes: Humanized A01; also called hzA01L3 + hzA01H3

target: T2, human CD40 (hCD40), full length, on cells (human, UniProt P25942 21-277); experiment: cell-based or functional assay

IC50, inhibition of Ramos cell apoptosis induced by CD40L and IL-4 [pM]	Inhibition, % of Ramos cell apoptosis at 0.064 ng/L (so in the source) [%]	Inhibition, % of Ramos cell apoptosis at 0.32 ng/L (so in the source) [%]	Inhibition, % of Ramos cell apoptosis at 1.6 ng/L (so in the source) [%]	Inhibition, % of Ramos cell apoptosis at 8 ng/L (so in the source) [%]	Inhibition, % of Ramos cell apoptosis at 40 ng/L (so in the source) [%]	Inhibition, % of Ramos cell apoptosis at 200 ng/L (so in the source) [%]	Inhibition, % of Ramos cell apoptosis at 1000 ng/L (so in the source) [%]	Binder
134	-8	-9	-10	18	66	90	98	B1
5.08	0	17	82	96	95	96	95	B2
4.99	5	20	85	98	97	97	94	B3
18.3	4	12	41	85	97	99	98	B4

target: T2, human CD40 (hCD40), full length, on …; experiment: cell-based or functional assay; remark: another data set of the same source

IC50, inhibition of Ramos cell apoptosis induced by CD40L and IL-4 [pM]	Inhibition, % of Ramos cell apoptosis at 0.0128 ng/mL [%]	Inhibition, % of Ramos cell apoptosis at 0.064 ng/mL [%]	Inhibition, % of Ramos cell apoptosis at 0.32 ng/mL [%]	Inhibition, % of Ramos cell apoptosis at 1.6 ng/mL [%]	Inhibition, % of Ramos cell apoptosis at 8 ng/mL [%]	Inhibition, % of Ramos cell apoptosis at 40 ng/mL [%]	Inhibition, % of Ramos cell apoptosis at 200 ng/mL [%]	Inhibition, % of Ramos cell apoptosis at 1000 ng/mL [%]	Binder
4.13	11	10	39	79	101	99	101	100	B2
24.7	-26	-24	-10	5	72	98	100	101	B4

target: T2, human CD40 (hCD40), full length, on …; experiment: cell-based or functional assay; remark: another data set of the same source

MFI value (CD95 on Ramos cells), Fc crosslinking with anti-human IgG Fcγ antibody, 1 µg/mL antibody [MFI]	MFI value (CD95 on Ramos cells), Fc crosslinking with anti-human IgG Fcγ antibody, 10 µg/mL antibody [MFI]	Binder
14100	12300	B5
12500	12100	B4

target: T2, human CD40 (hCD40), full length, on …; experiment: cell-based or functional assay; remark: another data set of the same source

IC50 (read off the curve); NF-κB luciferase reporter (RLU), 293T-hCD40-NFκB cells co-cultured 1:1 with CHO-K1-hCD40L cells [ng/mL]	Binder
~2	B5
~0.6	B2
~8	B4

target: T2, human CD40 (hCD40), full length, on …; experiment: flow cytometry (MFI) on CHO-K1-hCD40 cells, PE anti-human IgG detection

EC50 [pM]	Binder
1360	B1
430	B2
390	B3
360	B4

target: T3, hCD40-mFc (human); experiment: flow cytometry, blocking of hCD40-mFc (2 µg/mL) binding to CHO-K1-hCD40L cells
T3 construct: Prepared in-house in CHO cells; also called human CD40 recombinant protein containing a mouse antibody heavy chain Fc; Human CD40-mFc
Procedure: A CHO-K1-hCD40L cell suspension and a CHO-K1-CynoCD40L cell suspension at a cell concentration of 3×10⁵ cells/mL were separately added into a 96-well U-bottom plate at 100 μL/well. An hCD40-mFc protein at a final concentration of 2 μg/mL (prepared in-house, SEQ ID NO: 64) or a cynoCD40-mFc protein at a final concentration of 2 μg/mL (prepared in-house, SEQ ID NO: 65) was added correspondingly, before serially 2-fold diluted anti-CD40 antibodies in a final concentration range of 312.5 ng/ml-40000 ng/ml were added. The mixture was mixed well, and then incubated at 4° C. for 1 h. The cells were washed with PBS containing 2% of FBS, and then a PE-conjugated goat anti-mouse IgG (H+L) antibody (Abcam, Cat. No.: ab97041) diluted at a volume ratio of 1:500 was added, and the mixture was incubated at 4° C. for 0.5 h. The cells were washed with PBS containing 2% of […], and then resuspended in PBS containing 2% of FBS. The fluorescence signals were detected on a flow cytometer (Sartorius IQue3). The activity of anti-CD40 antibodies to block the binding of CHO-K1-hCD40L cells to an hCD40-mFc protein and CHO-K1-cynoCD40L cells to a cynoCD40-mFc protein was analyzed by the mean fluorescence intensity (MFI) of staining, and the IC₅₀ value was calculated by GraphPad Prism software.

IC50 [pM]	Binder
38400	B5
21300	B2
20600	B4

target: T2, human CD40 (hCD40), full length, on …; experiment: flow cytometry (MFI) on 293T-hCD40-NFκB cells, PE anti-human IgG detection

EC50 (read off the curve) [ng/mL]	Binder
~3	B5
~2	B2
~10	B4

target: T4, hCD40-His protein (Acro, Cat. No.: CD0-H5228) (human, UniProt P25942 21-193); experiment: BLI (Fortebio Octet RED96e), antibody captured on AHC sensor, antigen 1.56-100 nM, 1:1 model
T4 construct: Bought protein; also called human CD40 antigen; not shown: His tag
Procedure: (§1) The affinity of humanized anti-CD40 antibodies to an hCD40-His protein (Acro, Cat. No.: CD0-H5228) and a CynoCD40-His protein (Acro, Cat. No.: CD0-C52H6) was detected by a ForteBio molecular interaction system. Firstly, an AHC biosensor (Fortebio, Cat. No.: 18-5060) was activated, and then immersed in an anti-CD40 antibody solution at a final concentration of 5 μg/mL to capture the antibodies. Serially 2-fold diluted hCD40-His protein and CynoCD40-His protein in a final concentration range of 1.56 nM-100 nM were then […] the AHC biosensor. The response signals were detected in real time on a Fortebio molecular interaction system (Fortebio Octet RED96e) to give association and dissociation curves. After the completion of dissociation in each cycle, the AHC biosensor was regenerated for the next capture; the procedure was repeated until the affinity of the different antibodies for CD40 was determined. The resulting data were analyzed by Fortebio Data Analysis 11.0 software using a 1:1 (Langmuir) binding model to determine the Kₐ (Kₒₙ) and Kd (Kdis) values, and the dissociation constant KD was calculated by KD=Kd/Kₐ. See www.fortebio.com for more detailed detection procedures and related information.

Kd [pM]	koff [s⁻¹]	kon [M⁻¹ s⁻¹]	Binder
2510	0.00147	586000	B1
255	0.000414	1.63e+06	B5
153	0.000283	1.85e+06	B2
118	5.61e-05	474000	B4

Target: T1, CynoCD40-His protein (Acro, Cat. No.: …)
Experiment: as above
Procedure: as §1

Kd [pM]	koff [s⁻¹]	kon [M⁻¹ s⁻¹]	Binder
243	0.000484	1.99e+06	B5
162	0.000276	1.7e+06	B2
55.9	4.3e-05	769000	B4
